The record followed here is paper PMC4735289, “Seasonal induction of alternative principal pathway for rose flower scent” (Scientific Reports, 2016).

Substrate in the series “purified protein”: CC(=O)C(=O)O
The series can be described thus: purified protein. Format: biochemical, Rosa hybrid cultivar. To be noted: 1 mM TPP, 5 mM MgCl2, 0.1 M citrate pH 6.0, 40 °C.

Substrate in series [1]: O=C(O)C(=O)Cc1ccccc1
As to the kind of experiment: PPA decarboxylation; phenylacetaldehyde extracted and measured by GC-MS. In kind it is biochemical, Rosa hybrid cultivar. To be noted: 1 mM TPP, 5 mM MgCl2, 0.1 M citrate pH 6.0, 40 °C. The text has this: PPA decarboxylation; phenylacetaldehyde extracted and measured by GC-MS on […] | the kcat/Km value of […] was higher for PPA than for pyruvic acid (PA)

B1: RyPPDC (Rosa hybrid cultivar) (protein)
chain: MEPSTLIGATPRPTSALLPVVPAAACSGTLGRHLARRLVEIGVHDVFSVPGDFNLTLLDHLIAEPELNLIGCCNELNAGYAADGYARARGVGACVVTFTVGGLSVLNAIAGAYSENLPVICIVGGPNSNDYGTNRILHHTIGLPDFTQELRCFQTVTCHQAVVSHLEDAHELIDTAISTALKESKPVYISISCNLPAIPHPTFGRDPVPFFIAPKVSNQIGLEAAVEATAAFLNKAVKPVLVGGPKLRVAKAQKAFVELADASGYPMAVMPSGKGLVPEHHPHFIGTYWGAVSTSFCGEIVESADAYVFVGPIFNDYSSVGYSLLIKKEKAIIVEPNRVTIGNGPSFGWVFMGDFLTALAKKLKKNSTGMENYCRIFVPPGIPLKAQKDEPLRVNVLFKHIQEIVTPNTAIISETGDSWFNCQKLRLPENCGYEFQMQYGSIGWSVGATLGYAQGAKDKRVIACIGDGSFQVTAQDISTMIRCGQNTIIFLINNGGYTIEVEIHDGPYNVIKNWDYTGLVDAIHNGEGKCWTTKVRTEEDLTEAIAKATGEHKDSLCFIEVFVHKDDTRKELLEWGSRVSAANSRPPNPQ
notes: recombinant, baculovirus-insect cell (HighFive) expression, purified by DEAE, Phenyl HP and Superdex 200; cDNA from rose petals
Broadly, the Km is the concentration of substrate that gives half-maximal velocity. A word on the kcat: it is the maximal rate divided by the concentration of active sites. Take B1: the Michaelis-Menten constant (Km) came to 4.70 ± 0.32 mM in “purified protein” and 1.32 ± 0.06 mM in series [1]. For the same protein, the kcat was determined as 0.0215 ± 0.0005 s⁻¹ in “purified protein” and 0.0297 ± 0.00033 s⁻¹ in series [1].
